Laboratory results reported in patent US20250042994A1 (HAINAN SIMCERE ZAIMING PHARMACEUTICAL, published 2025).

T1: human CD19 on Raji cells (human, UniProt P15391 20-556)
T1 construct: whole, on cells
T1 sequence (looked up): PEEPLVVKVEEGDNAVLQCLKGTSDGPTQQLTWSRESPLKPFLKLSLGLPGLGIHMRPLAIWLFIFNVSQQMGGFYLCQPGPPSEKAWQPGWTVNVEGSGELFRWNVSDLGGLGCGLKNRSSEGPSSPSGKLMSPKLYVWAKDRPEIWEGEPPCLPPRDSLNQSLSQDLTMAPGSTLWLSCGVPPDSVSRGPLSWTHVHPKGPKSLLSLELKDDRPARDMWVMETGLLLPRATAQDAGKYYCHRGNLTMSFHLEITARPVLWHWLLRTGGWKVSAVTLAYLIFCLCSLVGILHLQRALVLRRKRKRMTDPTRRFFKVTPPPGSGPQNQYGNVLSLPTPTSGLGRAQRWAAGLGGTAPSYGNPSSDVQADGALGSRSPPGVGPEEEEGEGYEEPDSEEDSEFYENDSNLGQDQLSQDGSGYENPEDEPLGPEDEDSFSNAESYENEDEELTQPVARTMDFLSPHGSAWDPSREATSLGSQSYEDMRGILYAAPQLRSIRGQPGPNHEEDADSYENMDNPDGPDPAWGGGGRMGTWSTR

T2: human CD19 on CHO-K1-human CD19 cells (human, UniProt P15391 20-556)
T2 construct: whole, on cells; also called CHO-K1-human CD19-2C8
T2 sequence (looked up): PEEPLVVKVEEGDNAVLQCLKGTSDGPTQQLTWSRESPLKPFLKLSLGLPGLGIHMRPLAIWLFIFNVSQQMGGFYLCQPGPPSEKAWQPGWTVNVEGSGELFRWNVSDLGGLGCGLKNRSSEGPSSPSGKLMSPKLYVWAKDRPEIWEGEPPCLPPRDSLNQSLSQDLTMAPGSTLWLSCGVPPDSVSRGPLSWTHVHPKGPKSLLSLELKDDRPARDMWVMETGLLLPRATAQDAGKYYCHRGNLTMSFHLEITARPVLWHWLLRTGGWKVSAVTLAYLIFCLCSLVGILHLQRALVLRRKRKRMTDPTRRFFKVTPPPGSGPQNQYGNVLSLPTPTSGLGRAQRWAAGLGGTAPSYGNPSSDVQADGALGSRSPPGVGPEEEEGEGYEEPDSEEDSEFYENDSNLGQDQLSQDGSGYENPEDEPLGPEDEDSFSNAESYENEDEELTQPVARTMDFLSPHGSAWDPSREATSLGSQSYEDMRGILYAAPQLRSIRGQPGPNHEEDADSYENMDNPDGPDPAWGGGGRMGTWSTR

T3: cynomolgus monkey CD19 on peripheral blood B cells (cynomolgus monkey (Macaca fascicularis), UniProt A0A2K5W8L9 20-557)
T3 construct: whole, on cells; also called cynomolgus monkey B cells
T3 sequence: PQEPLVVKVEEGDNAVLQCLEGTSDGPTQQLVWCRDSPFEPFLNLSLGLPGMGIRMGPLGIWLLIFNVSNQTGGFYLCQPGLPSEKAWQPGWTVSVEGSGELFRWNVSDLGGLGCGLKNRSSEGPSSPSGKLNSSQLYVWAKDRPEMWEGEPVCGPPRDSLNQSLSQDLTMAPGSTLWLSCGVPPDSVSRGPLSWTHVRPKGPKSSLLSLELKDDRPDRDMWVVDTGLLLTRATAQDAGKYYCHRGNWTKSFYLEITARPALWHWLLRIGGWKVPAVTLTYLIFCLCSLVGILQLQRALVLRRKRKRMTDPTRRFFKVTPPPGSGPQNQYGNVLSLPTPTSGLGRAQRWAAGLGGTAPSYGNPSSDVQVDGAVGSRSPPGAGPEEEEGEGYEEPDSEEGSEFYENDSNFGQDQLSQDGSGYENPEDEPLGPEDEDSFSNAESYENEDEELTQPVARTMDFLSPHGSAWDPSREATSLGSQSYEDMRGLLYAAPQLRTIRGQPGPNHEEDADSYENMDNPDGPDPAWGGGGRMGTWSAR


Legend:
human CD19 on Raji cells = biological target: T1, human CD19 on Raji cells; experiment: FACS on Raji cells
[1] = biological target: T2, human CD19 on CHO-K1-human CD19 cells; experiment: FACS on CHO-K1-human CD19 cells
monkey CD19 protein [2] = biological target: T4, monkey CD19 protein (monkey); experiment: ELISA, coated monkey CD19 protein
T4 construct: also called monkey CD19-His protein
Method: (§1) Human CD19-his protein (purchased from ACROBiosystems, catalog number: CD9-H52H2) was diluted with PBS to a final concentration of 4 μg/mL, and then added to a 96-well ELISA plate at 100 μl/well. The plate was sealed with a plastic film and incubated overnight at 4° C., the plate was washed 2 times with PBS the next day, and then a blocking solution [PBS+2% (w/w) BSA] was added for blocking at room temperature for 2 h. The blocking solution was poured off, and 100 nM gradiently diluted CD19 chimeric antibody or control antibody was added at 50 μl/well. After incubation at 37° C. for 2 h, the plate was washed 3 times with PBS. […] TMB substrate was added at 50 μl/well, and incubated at room temperature for 10 min, and then a stop solution (1.0 N HCl) was added at 50 μl/well. The OD450 nm values were read by an ELISA microplate reader (Multimode Plate Reader, EnSight, purchased from Perkin Elmer).
(§2) In order to detect the species cross-binding activity of the chimeric antibodies, an ELISA plate was coated with commercial murine CD19 (ACROBiosystems, catalog number: 50510-M08H) and monkey CD19 (ACROBiosystems, catalog number: 90051-C08H), respectively, and the ELISA detection was performed according to the method in example 5.1.

[3] = biological target: T5, monkey CD19 on HEK293T-monkey CD19 cells (monkey); experiment: FACS on HEK293T-monkey CD19 cells
T5 construct: whole, on cells
How it was run: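 Antibody binding was read as MFI by flow cytometry and EC50 was taken from curve fitting. Before that, cells at 2×10⁶ cells/ml in PBS with 2% (w/w) BSA were exposed to samples for 2 h on ice and washed. Parental HEK293T cells were tested the same way.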

[4] = biological target: T3, cynomolgus monkey CD19 on peripheral …; experiment: FACS, cynomolgus PBMC, CD20+ B cells
monkey CD19 protein [5] = biological target: T4, monkey CD19 protein; experiment: ELISA on coated monkey CD19-His
Method: as §1, §2

[6] = biological target: T3, cynomolgus monkey CD19 on peripheral …; experiment: FACS, cynomolgus monkey PBMC, 1 nM antibody, co-stained with CD20 antibody
Method: The monkey peripheral blood mononuclear cells were extracted from fresh cynomolgus monkey peripheral blood (purchased from Shanghai Medicilon Inc.) according to the instructions of Ficoll-Paque Plus (purchased from GE Healthcae, catalog number: 171440-02). After the cell suspension was centrifuged, the cells were resuspended in PBS containing 1% BSA, and then the cells were counted. […] The mixture was incubated for 1 h at room temperature. After washing the cells three times, APC-labeled secondary antibody anti-human IgG Fc (catalog number: 409306, purchased from Biolegend) was added. After incubation at room temperature in the dark for 30 minutes, the cells were washed 5 times, gently resuspended with PBS containing 1% BSA, and detected and analyzed by FACS (FACS Canto™, purchased from BD Company), in which CD20 was used as a marker of B cells to gate the CD20-positive B cell population, the proportion of the chimeric antibody-labeled positive cells was analyzed, and the proportion of the chimeric antibody positive cell population to B cell population was calculated after treatments with the chimeric antibodies at the concentrations of 100 nM, 10 nM and 1 nM, respectively.

EC50 (human CD19 on Raji cells)	Maximum mean fluorescence intensity (human CD19 on Raji cells)	EC50 [1]	Maximum mean fluorescence intensity [1]	OD450 at 0.0001 nM (monkey CD19 protein [2])	OD450 at 0.001 nM (monkey CD19 protein [2])	OD450 at 0.01 nM (monkey CD19 protein [2])	OD450 at 0.10 nM (monkey CD19 protein [2])	OD450 at 1.00 nM (monkey CD19 protein [2])	OD450 at 10 nM (monkey CD19 protein [2])	OD450 at 100 nM (monkey CD19 protein [2])	EC50 [3]	Maximum mean fluorescence intensity [3]	Proportion of chimeric antibody positive cells to B cells (%) at 1 nM [4]	Proportion of chimeric antibody positive cells to B cells (%) at 10 nM [4]	Proportion of chimeric antibody positive cells to B cells (%) at 100 nM [4]	EC50 (read off the curve) (monkey CD19 protein [5])	ratio of chimeric antibody-labeled positive cells to CD20 positive cells [6]	Binder
2.46 nM	19100	1.35 nM	47500	0.08 OD450	0.12 OD450	0.41 OD450	1.44 OD450	1.93 OD450	2.04 OD450	1.93 OD450	1.27 nM	112000	23%	65%	92%	~0.04 nM		F3.124.7 (antibody, human IgG1, V domains shown, human-murine chimeric antibody, human IgG1) VH: EVQLQQSGPVLVKPGASVKMSCKASGYTFTDYYMNWVKQRHGKSLEWIGISNPYNGGTSYNQKFKDKATLTVDKSSSTAYMELNSLTSEDSAVYYCAREGGTAQPTSGMDYWGQGTSVTVSS VL: NIMMTQSPSSLAVSAGEKVTMSCKSSQSVLYSSNQKNYLAWYQQKPGQSPKLLIYWASTRESGVPDRFTGSGSGTDFTLTISSVQPEDPAVYYCHQYRSSYTFGGGTKLEIK
1.31 nM	26100	1.09 nM	56700									81	1%	2%	4%		2%	F4.58.6 (antibody, human IgG1, V domains shown, human-murine chimeric antibody, human IgG1) VH: QVQLQQPGAELVKPGASVKLSCKASGYTFTSYWMHWVKQRPGQGLEWIGEIDPSDSYSNYNQKFKGKATLTVDKSSSTAYMQLSSLTSEDSAVYYCARSNYGSSYGYFDVWGAGTTVTVSS VL: QIVLTQSPAIMSASPGEKVTMTCSVSSSLSYMHWYQQKPGTSPKRWIYDTSKLASGVPARFSGSGSGTSYSLTISSMEAEDAATYYCHQRSSYPTFGGGTKLEIK
